We go through one substance from paper PMC3553496.

Common to all, as to test: peptide or protein array
Experiment [1] deals with Myosin-14 peptide (18-mer) (human).
The target in experiment [2] is Leucine-rich repeat flightless-interacting protein 2 peptide (18-mer) (human).
For experiment [3], the target named is Drebrin peptide (18-mer) (human).
The target in experiment [4] is LIM domain only protein 7 peptide (18-mer) (human).
Experiment [5] deals with LIM homology domain– and calponin homology domain–containing protein 1 peptide (18-mer) (human).
Experiment [6] has as its target FH1/FH2 domain–containing protein 3 peptide (18-mer) (human).

With “GST-tagged ARHGAP10L SH3 domain (domain or fragment)”, the relative binding strength (% of the strongest interaction of this SH3 domain) in experiment [1] is 100%; in experiment [2] it was 65%; in experiment [3], 68%; in experiment [4] it was 12%; in experiment [5], 11%; in experiment [6] it was 53%.
